The test concerns the target T1, GST-tagged non-phosphorylatable variant RssB D51E (Serratia marcescens, UniProt Q8GP20 1-219, D51E).
T1 construct: RssB, response regulator of the RssAB two-component system, Serratia marcescens CH-1, with D51E; plasmid pGST-RssB^D51E (pGEX-2T-rssB D51E); used to mimic unphosphorylated RssB; also called GST-RssB^D51E; source: E. coli BL21(DE3)pLysS, purified
T1 sequence: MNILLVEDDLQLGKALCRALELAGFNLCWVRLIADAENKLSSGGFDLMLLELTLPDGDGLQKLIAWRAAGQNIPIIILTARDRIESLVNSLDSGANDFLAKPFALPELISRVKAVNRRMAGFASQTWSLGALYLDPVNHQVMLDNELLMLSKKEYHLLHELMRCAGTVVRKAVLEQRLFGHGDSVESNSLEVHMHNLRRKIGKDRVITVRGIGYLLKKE
The experiment in a line: pull-down; GST, GST-RssB or GST-RssB D51E pretreated with acetyl-phosphate, incubated with His-cRssA and glutathione sepharose-4B in interaction buffer (20 mM Tris-HCl pH 7.5, 10 mM MgCl2, 100 mM KCl), 4°C 1 hr; washed; SDS-PAGE, Coomassie stain and anti-hexa-histidine blot. The settings on record: both partners purified.

B1: poly histidine-tagged cytoplasmic region of RssA (domain or fragment)
chain: LRPLRQIARTISDRQPGNLSPINVSEQYQEIRPVVMEVNKLMARIDAANQREKRFMADAAHELRTPIAAVLAQLHLLTQVTEQQERREIIGDMQQGLDRAASLSRQLINLAKLEAEDFPLKIEAVDIYAEIGKCIAQHVPYALEKDVELSLDGSEDVVVSTDRRALIAIFTNLLDNALKYAPPGSRIEANIRSLAPLGCYITLRDNGPGVSEEHRSRLFERFYRVPGTQQTGSGLGLAIARNLADKIGAQLRVTEGLDDRGIGFIIDLPESYRPQTESEPRP
notes: RssA, inner membrane sensor kinase of the RssAB two-component system, Serratia marcescens CH-1; also called His-cRssA; cRssA; source: E. coli BL21(DE3)pLysS, recombinant protein for purification
Regarding B1, the “fold His-cRssA pulled down relative to GST-RssB” value was about 2 fold.

(Values after article PMC3162612, “RssAB Signaling Coordinates Early Development of Surface Multicellularity in Serratia marcescens” (PLoS ONE, 2011).)
